Paper PMC11931385, “Structural and functional analysis of cancer-associated missense variants in the retinoblastoma protein pocket domain” (The Journal of Biological Chemistry, 2025)
Positions count from the first letter of the chain named. Numbers in names are those of the source. No end group written: not given here. TMR = tetramethyl rhodamine dye

B1: TMR-E2F1^TD, peptide of the E2F1 transactivation domain (peptide)
peptide: {TMR}-GEGIRDLFDCDFGDLTPLD
notes: also called E2F^TD; source: synthetic peptide, bought: GenScript
B2: TMR-E7^LxCxE, LxCxE peptide of the E7 oncoprotein from HPV (peptide)
peptide: DLYCYEQLN
modifications: also: TMR label, position not given here
notes: source: synthetic peptide, bought: GenScript

Tests used:
Assay in all cases: fluorescence polarisation; 25 °C; unlabeled Rb^P titrated against 1.5 nM TMR-E2F1^TD or 7.5 nM TMR-E7^LxCxE; 25 mM Tris pH 8.0, 200 mM NaCl, 1 mM DTT, 0.1% Tween-20; 2 min incubation; quadratic fit; apparent Kd for the variants, Kd for WT
Details in all cases: both partners purified
Rb^P I679F = target: T1, Rb^P I679F (human, UniProt P06400 380-788, I679F)
T1 construct: also called variant 57
T1 sequence (looked up): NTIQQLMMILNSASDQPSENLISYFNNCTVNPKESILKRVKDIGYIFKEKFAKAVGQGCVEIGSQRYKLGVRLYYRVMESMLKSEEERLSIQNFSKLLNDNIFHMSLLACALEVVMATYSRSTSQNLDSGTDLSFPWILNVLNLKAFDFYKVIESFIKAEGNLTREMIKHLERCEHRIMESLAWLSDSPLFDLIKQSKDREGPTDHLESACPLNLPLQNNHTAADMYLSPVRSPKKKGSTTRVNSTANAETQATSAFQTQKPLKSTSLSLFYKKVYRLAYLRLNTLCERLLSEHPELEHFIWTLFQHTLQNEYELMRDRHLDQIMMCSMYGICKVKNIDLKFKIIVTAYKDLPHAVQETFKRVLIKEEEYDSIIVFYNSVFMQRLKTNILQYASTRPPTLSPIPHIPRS

Rb^P E440K = target: T2, Rb^P E440K (human, UniProt P06400 380-788, E440K)
T2 construct: also called variant 1
T2 sequence (looked up): T1 sequence (looked up) with E61K, F300I

Rb^P S463L = target: T3, Rb^P S463L (human, UniProt P06400 380-788, S463L)
T3 construct: also called variant 10
T3 sequence (looked up): T1 sequence (looked up) with S84L, F300I

Rb^P R741S = target: T4, Rb^P R741S (human, UniProt P06400 380-788, R741S)
T4 construct: also called variant 70
T4 sequence (looked up): T1 sequence (looked up) with F300I, R362S

Rb^P R621S = target: T5, Rb^P R621S (human, UniProt P06400 380-788, R621S)
T5 construct: also called variant 44
T5 sequence (looked up): T1 sequence (looked up) with R242S, F300I

Binder	Kd (Rb^P I679F)	Kd (Rb^P E440K)	Kd (Rb^P S463L)	Kd (Rb^P R741S)	Kd (Rb^P R621S)
B1	17 nM	12 nM	26 nM	32 nM	21 nM
B2	11 nM	5 nM	10 nM	16 nM	6 nM
